Bridge positions count the residues as written; N and C are the ends. Square brackets hold non-standard residues; d marks the D form. Orn = NCCC[C@H](N)C(=O)O; Dab = NCC[C@H](N)C(=O)O
B1: Asp...Lys analog of peptide No. 18: Ac-Arg-cyclo(Asp-Dab(Acetyl)-D-Phe-Arg-Trp-Lys)-NH2 (peptide)
peptide: Ac-RD[Dab](Ac)[dF]RWK-NH2
modifications: lactam 2-7
SMILES: CC(=O)NCC[C@@H]1NC(=O)[C@@H](NC(=O)[C@H](CCCNC(=N)N)NC(C)=O)CC(=O)NCCCC[C@@H](C(N)=O)NC(=O)[C@H](Cc2c[nH]c3ccccc23)NC(=O)[C@H](CCCNC(=N)N)NC(=O)[C@@H](Cc2ccccc2)NC1=O

Target: human melanocortin-4 receptor (recombinant hMC4-R) (human), P32245
Experiment: competition with labelled NDP-α-MSH ([I125] or Eu), hMC4-R HEK-293 membranes
Conditions: remark: other sources report otherwise

human melanocortin-4 receptor (recombinant hMC4-R) (human), P32245, sequence (P32245 whole entry): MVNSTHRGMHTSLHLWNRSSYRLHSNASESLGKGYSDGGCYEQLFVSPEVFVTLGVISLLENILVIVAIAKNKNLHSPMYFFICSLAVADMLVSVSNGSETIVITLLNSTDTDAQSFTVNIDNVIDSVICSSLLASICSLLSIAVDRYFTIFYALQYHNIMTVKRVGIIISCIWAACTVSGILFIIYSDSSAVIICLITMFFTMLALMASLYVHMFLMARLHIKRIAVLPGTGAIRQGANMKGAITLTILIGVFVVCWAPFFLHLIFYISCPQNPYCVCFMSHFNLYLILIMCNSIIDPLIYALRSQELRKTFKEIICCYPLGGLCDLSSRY

Binder	Ki
Ac-RD[Orn](Ac)[dF]RWK-NH2 (lactam 2-7) [Asp...Lys analog of peptide No. 33: Ac-Arg-cyclo(Asp-Orn(Acetyl)-D-Phe-Arg-Trp-Lys)-NH2]	573 nM
B1	33 nM
Ac-RD[Dab][dF]RWK-OH (lactam 2-7) [Asp...Lys analog of peptides No. 5 and No. 42: Ac-Arg-cyclo(Asp-Dab-D-Phe-Arg-Trp-Lys)-OH]	56 nM
Ac-RD[Dab][dF]RWK-NH2 (lactam 2-7) [Asp...Lys analog of peptides No. 6 and No. 43: Ac-Arg-cyclo(Asp-Dab-D-Phe-Arg-Trp-Lys)-NH2]	4 nM
Ac-RD[Orn][dF]RWK-OH (lactam 2-7) [Asp...Lys analog of peptide No. 7: Ac-Arg-cyclo(Asp-Orn-D-Phe-Arg-Trp-Lys)-OH]	18 nM
Ac-RD[Orn][dF]RWK-NH2 (lactam 2-7) [Asp...Lys analog of peptide No. 8: Ac-Arg-cyclo(Asp-Orn-D-Phe-Arg-Trp-Lys)-NH2]	7 nM
